Laboratory results from patent US20240360176.

Test system: pNaKtide

With “Src kinase (mouse, endogenous in the liver of C57BL/6J mice)” the “Src phosphorylation in mouse liver, ratio pSrc/pSrc+cSrc by Western blot” value was “Src phosphorylation peaked in the HFD groups at week 20, with paucity on pSrc peak in the pNaKtide and Exercise groups”.
